Here are results for 6 substances from article PMC2630536.

In general, Kd refers to the concentration at which binding is half-saturated. Higher therefore signals lower affinity.

The target in experiment [1] is TMEGF456 E357Q. Kind of experiment: SPR. Background: In SPR one partner is held on a chip, and binding of the other changes the refractive index at the surface.
Experiment [2] deals with TMEGF456 D349N. Description: SPR.
Experiment [3] addresses TMEGF456 M388L. Kind of experiment: SPR.
Experiment [4] has as its target TMEGF456 Y358F. Kind of experiment: SPR.
Experiment [5] has as its target fluorescein-EGR-chloromethylketone-labeled thrombin (bovine) (bovine). Kind of experiment: other fluorescence titration.

Take “thrombin (PPACK-thrombin in the SPR; active thrombin in the protein C activation assay) (enzyme)”: the Kd is 5.2 nM in experiment [1], 4.2 nM in experiment [2], 4.4 nM in experiment [3] and 2.6 nM in experiment [4]. Substance TMEGF45 M388L (domain or fragment) showed a dissociation constant Kd in experiment [5] of 57 nM. Turning to TMEGF45 D349N (domain or fragment), in experiment [5], the Kd amounted to 43 nM. On the same count and under the same terms, for TMEGF45 E357Q (domain or fragment) the value was 55 nM; for TMEGF45 D400E (domain or fragment), 49 nM; for TMEGF45 wild type (domain or fragment), 68 nM.
